Data: article PMC10299379

What was measured:
[1] = target: EBV LMP1-C (latent membrane protein 1, C-terminal domain, amino acids 186-387) (Epstein-Barr virus) (UniProt P03230); test: SPR; Biacore T200; LMP1-C and LMP2A-N immobilised on sensor chip CM5 as ligands; affibody molecules injected as analytes in serial dilutions; 1:1 Langmuir fit
[2] = target: EBV LMP2A-N (latent membrane protein 2A, N-terminal domain, amino acids 1-119) (Epstein-Barr virus) (UniProt P13285); test: as above
UniProt P13285, sequence (P13285 1-119): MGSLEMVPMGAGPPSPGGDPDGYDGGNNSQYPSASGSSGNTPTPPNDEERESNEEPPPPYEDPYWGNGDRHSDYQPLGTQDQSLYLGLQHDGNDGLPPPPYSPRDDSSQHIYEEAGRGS

UniProt P03230, sequence (P03230 186-386): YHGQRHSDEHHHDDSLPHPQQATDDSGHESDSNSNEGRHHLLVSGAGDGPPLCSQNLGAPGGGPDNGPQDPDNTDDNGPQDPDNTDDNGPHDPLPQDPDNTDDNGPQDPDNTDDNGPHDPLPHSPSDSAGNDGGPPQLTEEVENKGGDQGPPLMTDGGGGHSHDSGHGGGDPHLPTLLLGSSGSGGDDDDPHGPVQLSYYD

SPA-Z scaffold (ZWT) (domain or fragment)
koff [1]: 0.00246 s⁻¹
koff [2]: 5.97e-05 s⁻¹
